Values joined by “and” are separate entries in the source; they are usually repeats but may differ in a detail not shown here. Equal values may be shown once.
Experiments:
[1] = biological target: T1, human IL-17A (human, UniProt Q16552 24-155); assay: cell-based or functional assay
[2] = biological target: T2, human IL-17F (human, UniProt Q96PD4 31-163); assay: cell-based or functional assay
T2 sequence: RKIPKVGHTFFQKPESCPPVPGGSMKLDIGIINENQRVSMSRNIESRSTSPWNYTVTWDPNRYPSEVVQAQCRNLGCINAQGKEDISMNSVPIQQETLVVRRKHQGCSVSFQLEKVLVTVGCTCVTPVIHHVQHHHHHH

[3] = biological target: Cynomolgus monkey IL-17A (Cynomolgus monkey, UniProt A0A2K5TTB0 24-155); assay: cell-based or functional assay
[4] = biological target: T1, human IL-17A; assay: cell-based or functional assay; remark: listed apart in the source
[5] = biological target: T2, human IL-17F; assay: cell-based or functional assay; remark: listed apart in the source
[6] = biological target: T2, human IL-17F; assay: KinExA, 600 pM Nanobody
[7] = biological target: T1, human IL-17A; assay: SPR, IL-17A-Nanobody complex over captured IL-17RA
Source text: The receptor (IL-17RA or IL-17RC) was captured via its human Fc-tail by an anti-human IgG-Fc antibody coated on the chip.

[8] = biological target: T3, rat IL-17F (rat, UniProt Q5BJ95 29-161); assay: ELISA, coated IL-17F;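 further: binding ELISA on coated antigen from various species, with bound Nanobodies revealed by an HRP-linked anti-myc antibody and esTMB substrate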
T3 sequence (looked up): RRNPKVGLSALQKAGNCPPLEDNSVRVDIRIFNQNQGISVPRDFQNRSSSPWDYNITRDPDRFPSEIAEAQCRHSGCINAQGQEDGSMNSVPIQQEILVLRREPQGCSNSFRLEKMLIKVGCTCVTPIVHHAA
Procedure: (§1) Binding of a selected panel of anti-IL-17 Nanobodies to IL-17 of other species was assessed using a binding ELISA. […] HRP (horseradish peroxidase) conjugated anti-myc (Serotec, MCA 2200P) was used for detection using esTMB as substrate.

[9] = biological target: T4, mouse IL-17F (mouse, UniProt Q7TNI7 29-161); assay: ELISA, coated IL-17F;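 further: binding ELISA on coated antigen from various species, with bound Nanobodies revealed by an HRP-linked anti-myc antibody and esTMB substrate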
T4 sequence (looked up): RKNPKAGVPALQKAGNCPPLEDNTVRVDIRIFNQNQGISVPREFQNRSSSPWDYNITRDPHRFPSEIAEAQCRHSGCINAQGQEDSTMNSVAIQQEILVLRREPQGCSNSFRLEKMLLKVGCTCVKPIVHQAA
Procedure: as §1

[10] = biological target: T1, human IL-17A; assay: KinExA, 200 pM Nanobody
[11] = biological target: T5, marmoset IL-17A (marmoset, IL-17A is a disulfide-linked homodimer. One chain is given.); assay: ELISA, coated IL-17A
T5 chain: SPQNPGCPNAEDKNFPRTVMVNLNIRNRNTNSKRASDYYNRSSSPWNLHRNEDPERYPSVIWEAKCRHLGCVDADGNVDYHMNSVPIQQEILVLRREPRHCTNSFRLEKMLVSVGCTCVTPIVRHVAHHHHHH
Procedure: as §1

[12] = biological target: T1, human IL-17A; assay: ELISA, coated IL-17A
Procedure: as §1

[13] = biological target: T6, mouse IL-17A (mouse, UniProt Q62386 26-158); assay: ELISA, coated IL-17A
T6 sequence (looked up): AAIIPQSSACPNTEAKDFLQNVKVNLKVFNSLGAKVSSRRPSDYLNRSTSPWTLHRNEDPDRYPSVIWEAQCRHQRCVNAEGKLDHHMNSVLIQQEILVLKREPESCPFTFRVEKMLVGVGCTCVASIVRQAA
Procedure: as §1

[14] = biological target: guinea pig IL-17A (guinea pig); assay: ELISA, coated IL-17A
Procedure: as §1

[15] = biological target: T7, rat IL-17A (rat, UniProt Q61453 18-150, limits assumed); assay: ELISA, coated IL-17A
T7 sequence (looked up): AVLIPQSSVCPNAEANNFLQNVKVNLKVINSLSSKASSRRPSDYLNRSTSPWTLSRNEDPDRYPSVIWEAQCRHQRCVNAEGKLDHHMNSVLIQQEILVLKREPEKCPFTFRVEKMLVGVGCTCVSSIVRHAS
Procedure: as §1

[16] = biological target: T2, human IL-17F; assay: ELISA, coated IL-17F;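 further: binding ELISA on coated antigen from various species, with bound Nanobodies revealed by an HRP-linked anti-myc antibody and esTMB substrate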
Procedure: as §1

[17] = biological target: T8, marmoset IL-17F (marmoset, UniProt A6N6I9 31-163); assay: ELISA, coated IL-17F;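 further: binding ELISA on coated antigen from various species, with bound Nanobodies revealed by an HRP-linked anti-myc antibody and esTMB substrate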
T8 sequence (looked up): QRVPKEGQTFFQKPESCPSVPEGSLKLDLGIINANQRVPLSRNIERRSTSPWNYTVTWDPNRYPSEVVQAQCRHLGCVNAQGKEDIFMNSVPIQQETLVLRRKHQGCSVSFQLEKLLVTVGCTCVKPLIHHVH
Procedure: as §1

[18] = biological target: T1, human IL-17A; assay: AlphaScreen IL-17A-IL-17RA, average
[19] = biological target: T1, human IL-17A; assay: KinExA, 600 pM Nanobody
[20] = biological target: T1, human IL-17A; assay: SPR
[21] = biological target: T9, human IL-17A/F heterodimer (human, UniProt Q16552 24-155; Q96PD4 31-163, limits assumed); assay: SPR
T9 construct: produced in E. coli, bought from R&D Systems (Cat 5194-IL/CF); also called hIL-17A/F

[22] = biological target: T1, human IL-17A; assay: KinExA, 30 pM Nanobody
[23] = biological target: T1, human IL-17A; assay: KinExA, 100 pM Nanobody
Procedure: (§2) The affinity of a limited set of formatted Nanobodies was determined using the KinExA.

[24] = biological target: T1, human IL-17A; assay: competition ELISA IL17A-RA
Procedure: To this end, IL-17RA, respectively IL-17RC was coated at a concentration of 1 μg/ml in PBS.

[25] = biological target: T1, human IL-17A; assay: KinExA, 300 pM Nanobody
Procedure: as §2

[26] = biological target: T2, human IL-17F; assay: KinExA, 300 pM Nanobody
Procedure: as §2

[27] = biological target: T10, Cynomolgus monkey IL-17F (Cynomolgus monkey, UniProt G7P4V0 31-163); assay: cell-based or functional assay
T10 sequence: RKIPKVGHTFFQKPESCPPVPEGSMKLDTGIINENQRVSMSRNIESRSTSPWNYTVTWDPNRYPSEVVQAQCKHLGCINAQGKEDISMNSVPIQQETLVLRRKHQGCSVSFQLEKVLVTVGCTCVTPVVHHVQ

[28] = biological target: T1, human IL-17A; assay: KinExA, 50 pM Nanobody
Procedure: as §2

[29] = biological target: T2, human IL-17F; assay: KinExA, 50 pM Nanobody
Procedure: as §2

[30] = biological target: T2, human IL-17F; assay: KinExA, 10 pM Nanobody

T1 sequence (Q16552 other isoform, or with tags, fused parts or gaps): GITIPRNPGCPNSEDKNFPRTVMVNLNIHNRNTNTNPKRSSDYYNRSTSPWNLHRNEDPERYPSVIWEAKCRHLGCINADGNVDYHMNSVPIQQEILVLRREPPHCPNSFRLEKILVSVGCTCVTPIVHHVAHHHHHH
T9 sequence (Q16552 24-155 limits assumed, one chain of several): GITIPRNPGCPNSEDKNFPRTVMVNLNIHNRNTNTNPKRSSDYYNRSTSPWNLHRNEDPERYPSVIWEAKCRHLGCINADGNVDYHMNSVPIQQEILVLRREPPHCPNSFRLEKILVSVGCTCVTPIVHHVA
Chain of Cynomolgus monkey IL-17A (A0A2K5TTB0 entry or part of it): as the sequence (Q16552 24-155 limits assumed, one chain of several) above, with T3A, P8S, N34S, I77V, N78K, P104R counted along it

B1: 13E02-LH-Fc (Fc fusion, not shown: a dimerising Fc or GST)
chain: EVQLVESGGGLVQAGGSLRLSCAASGRTYDAMGWLRQAPGKEREFVAAISGSGDDTYYADSVKGRFTISKDNAGITMYLQMNSLKPEDTAVYYCATRRGLYYVWDSNDYENWGQGTQVTVSSEPKTPKPQPQPQPQPNPTTESKCPKCP
notes: bivalent Fc fusion from Hek-293-6E cells; also called MSB0010606
IC50, hIL-17A induced IL-6, HT-1080, without HSA [1]: 0.19 nM | IC50, hIL-17F induced IL-6, HT-1080, without HSA [2]: 2.7 nM | IC50, Cyno IL17A, HT-1080 bioassay [3]: 0.19 nM | Emax, hIL-17A induced IL-6, HT-1080, 100 µM HSA [4]: 98.5% | IC50, hIL-17A induced IL-6, HT-1080, 100 µM HSA [4]: 0.85 nM | IC50, hIL-17F induced IL-6, HT-1080, 100 µM HSA [5]: 15.3 nM | Kd [6]: 2.04 nM

B2: 01A01 (VHH)
VHH: EVQLVESGGGLVQAGGSLRLSCAASGFTFDDYDIGWFRQAPGKEREGVSCFTSSDGRTFYADSVKGRFTVSADNAKNTVYLQMNSLEPEDTAVYFCAAVNTFDESAYAAFACYDVVRWGQGTQVTVSS
notes: Class 4
% Biacore binding (IL-17A-NB)-IL-17RA [7]: -1.04% | OD [8]: 0.0005 OD | OD [9]: -0.0005 OD | Kd [10]: 0.0013 nM | OD [11]: 1.84 OD | OD [12]: 1.83 OD | OD [13]: -0.003 OD | OD [14]: 0.008 OD | OD [15]: 0.004 OD

B3: 04G01 (VHH)
VHH: EVQLVESGGGLVQAGGSQRLSCTASGTIVNIHVMGWYRQAPGKQRELVALIFSGGSADYADSVKGRFTISRDNAKNTVYLEMNSLKAEDTAVYYCAAEIGYYSGGTYYSSEAHWGQGTQVTVSS
notes: Class 2; also called IL17MS04G01
% Biacore binding (IL-17A-NB)-IL-17RA [7]: -0.43% | OD [16]: -0.016 OD | OD [17]: 0.0005 OD | IC50 [18]: 0.093 nM | OD [11]: 1.93 OD | OD [12]: 1.9 OD | OD [13]: -0.001 OD | OD [14]: 0.008 OD | OD [15]: 0.004 OD | Kd [19]: 0.0134 nM | koff [20]: 0.00018 s⁻¹ and 0.000116 s⁻¹ | koff [21]: 0.00023 s⁻¹ and 0.00017 s⁻¹

B4: 13E02-SH-Fc (Fc fusion, not shown: a dimerising Fc or GST)
chain: EVQLVESGGGLVQAGGSLRLSCAASGRTYDAMGWLRQAPGKEREFVAAISGSGDDTYYADSVKGRFTISKDNAGITMYLQMNSLKPEDTAVYYCATRRGLYYVWDSNDYENWGQGTQVTVSSEPKSSDKTHTCPPCP
notes: bivalent Fc fusion from Hek-293-6E cells
Kd [22]: 0.0036 nM | Kd [23]: 0.009 nM

B5: 13B03-SH-Fc (Fc fusion, not shown: a dimerising Fc or GST)
chain: EVQLVESGGGSVQAGDSLRLSCAASGRANSINWFGWFRQTPGKEREFVAGIRWSDAYTEYANSVKGRFTISRDNAKNTVDLQMDSLKPEDTAVYYCVLDLSTVRYWGQGTQVTVSSEPKSSDKTHTCPPCP
notes: bivalent Fc fusion from Hek-293-6E cells; signal peptide left out; also called MSB0010493; 13B03VHH-SH-Fc
IC50 [24]: 0.02 nM | Emax, hIL-17A induced IL-6, HT-1080, without HSA [1]: 100% | IC50, hIL-17A induced IL-6, HT-1080, without HSA [1]: 0.19 nM | IC50, hIL-17F induced IL-6, HT-1080, without HSA [2]: 5.8 nM | Kd [25]: 0.0002 nM | Kd [26]: 0.132 nM | IC50, Cyno IL17A, HT-1080 bioassay [3]: 0.21 nM | IC50, Cyno IL17F, HT-1080 bioassay [27]: 3.8 nM

B6: 13B03-LH-Fc (Fc fusion, not shown: a dimerising Fc or GST)
chain: EVQLVESGGGSVQAGDSLRLSCAASGRANSINWFGWFRQTPGKEREFVAGIRWSDAYTEYANSVKGRFTISRDNAKNTVDLQMDSLKPEDTAVYYCVLDLSTVRYWGQGTQVTVSSEPKTPKPQPQPQPQPNPTTESKCPKCP
notes: bivalent Fc fusion from Hek-293-6E cells; also called MSB0010530
IC50 [24]: 0.031 nM | Kd [28]: 0.002 nM | Kd [29]: 0.02 nM | Kd [30]: 0.0223 nM | Emax, hIL-17A induced IL-6, HT-1080, 100 µM HSA [4]: 97.5% | IC50, hIL-17A induced IL-6, HT-1080, 100 µM HSA [4]: 0.95 nM | IC50, hIL-17F induced IL-6, HT-1080, 100 µM HSA [5]: 15.6 nM

Reference: patent US20210130452A1 (Merck KGaA, published 2021)
